Source: PMC12245028

Molecular target: p65 (RELA, Transcription factor p65) (UniProt Q04206)
Experiment: anti-HA co-IP, p65 blot
Details: reference: HA-WEE1 wild type; sites S642

HA-WEE1 (from UniProt P30291) HA-WEE1 S642A
binding against the reference: lost
